# Assay results published in publication PMC9078787.
# Target: Fcγ receptor IIIa (UniProt P08637)
# Chain of UniProt P08637 (P08637 17-208): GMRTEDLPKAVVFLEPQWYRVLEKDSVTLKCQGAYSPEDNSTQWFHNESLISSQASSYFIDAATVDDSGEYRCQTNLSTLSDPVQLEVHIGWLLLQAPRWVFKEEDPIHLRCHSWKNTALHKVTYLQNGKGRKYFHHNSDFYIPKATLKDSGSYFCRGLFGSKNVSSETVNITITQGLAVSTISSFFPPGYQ
substance,measurement,value
Pertuzumab (trademark: Perjeta®) (antibody),"ADCC reporter-gene assay (Jurkat-CD16a-FcεRIγ-NFAT-luc effector cells, SK-BR-3 target cells), relative activity by EC50; batch H0323B07 (%afucose 4.2), the reference standard (%relative activity)",100
same,"ADCC reporter-gene assay, relative activity by EC50; batch H0324B01 (%afucose 4.1) (%relative activity)",96
same,"ADCC reporter-gene assay, relative activity by EC50; batch H0337B01 (%afucose 2.6) (%relative activity)",82
same,"ADCC reporter-gene assay, relative activity by EC50; batch H0340B01 (%afucose 2.4) (%relative activity)",73
same,"ADCC reporter-gene assay, relative activity by EC50; batch H0371B01 (%afucose 2.1) (%relative activity)",91
same,"ADCC reporter-gene assay, relative activity by EC50; batch H0382B04 (%afucose 3.7) (%relative activity)",84
same,"ADCC reporter-gene assay, relative activity by EC50; batch H0383B01 (%afucose 1.8) (%relative activity)",78
same,"ADCC reporter-gene assay, relative activity by EC50; batch H0388B01 (%afucose 2.3) (%relative activity)",81
same,"ADCC reporter-gene assay, relative activity by EC50; batch H0389B01 (%afucose 1.9) (%relative activity)",76
same,"ADCC reporter-gene assay, relative activity by EC50; batch H0391B01 (%afucose 2.1) (%relative activity)",71
same,"ADCC reporter-gene assay, relative activity by EC50; batch H0394B01 (%afucose 2.1) (%relative activity)",73
same,"ADCC reporter-gene assay, relative activity by EC50; batch H0395B02 (%afucose 2.1) (%relative activity)",76
same,"ADCC reporter-gene assay, relative activity by EC50; batch H0396B01 (%afucose 2.1) (%relative activity)",71
same,"ADCC reporter-gene assay, relative maximum response; batch H0323B07 (%afucose 4.2), the reference standard (%relative activity)",100
same,"ADCC reporter-gene assay, relative maximum response; batch H0324B01 (%afucose 4.1) (%relative activity)",103
same,"ADCC reporter-gene assay, relative maximum response; batch H0337B01 (%afucose 2.6) (%relative activity)",86
same,"ADCC reporter-gene assay, relative maximum response; batch H0340B01 (%afucose 2.4) (%relative activity)",88
same,"ADCC reporter-gene assay, relative maximum response; batch H0371B01 (%afucose 2.1) (%relative activity)",72
same,"ADCC reporter-gene assay, relative maximum response; batch H0382B04 (%afucose 3.7) (%relative activity)",96
same,"ADCC reporter-gene assay, relative maximum response; batch H0383B01 (%afucose 1.8) (%relative activity)",70
same,"ADCC reporter-gene assay, relative maximum response; batch H0388B01 (%afucose 2.3) (%relative activity)",74
same,"ADCC reporter-gene assay, relative maximum response; batch H0389B01 (%afucose 1.9) (%relative activity)",70
same,"ADCC reporter-gene assay, relative maximum response; batch H0391B01 (%afucose 2.1) (%relative activity)",78
same,"ADCC reporter-gene assay, relative maximum response; batch H0394B01 (%afucose 2.1) (%relative activity)",74
same,"ADCC reporter-gene assay, relative maximum response; batch H0395B02 (%afucose 2.1) (%relative activity)",75
same,"ADCC reporter-gene assay, relative maximum response; batch H0396B01 (%afucose 2.1) (%relative activity)",80
